By Kd is commonly meant the equilibrium constant for the complex coming apart. Low readings indicate tighter binding, high ones weaker binding.

Data on two sequences can be found in US8748104.

For series [1], the target named is skeletal Troponin I (UniProt P48788). The note with it: Luminex bead fluorescence assay, streptavidin-phycoerythrin detection; room temperature 1 h, PBS washes.
Series [2] has the same target. Particulars: Luminex bead fluorescence assay, streptavidin-phycoerythrin detection; room temperature 1 h, PBS washes. This is another data set of the same source.

Read-outs that look alike come from different tables or passages of the source.

Sequence of UniProt P48788 (P48788 2-182): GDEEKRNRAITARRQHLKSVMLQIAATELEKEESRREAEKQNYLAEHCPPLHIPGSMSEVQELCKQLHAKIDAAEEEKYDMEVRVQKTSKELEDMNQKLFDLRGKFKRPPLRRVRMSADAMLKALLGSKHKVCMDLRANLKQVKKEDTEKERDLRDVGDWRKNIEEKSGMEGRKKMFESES

“GGGATGGGGTGGGTGGCCAGCGATT [SEQ ID NO: 1 aptamer]” yielded a Kd with skeletal Troponin I [1] of 37.7 nM.
In the series with skeletal Troponin I [2], “TTAGGGGTGGTGTGGTTGGCAATTC [SEQ ID NO: 2 aptamer]” returned a dissociation constant (Kd) of 5 nM.
